Experiment: soluble fraction after stress (log2 fold change); higher = more stays soluble; pooled small domains, quantitative proteomics
Conditions: stress: 50 degC
In short: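 After stress at 50°C, the amount of each protein still soluble was measured. This was done on pooled custom libraries of small protein domains, using high-throughput quantitative proteomics. The figure given is a base-two log fold change and stands for aggregation propensity, with higher values meaning more protein stays in solution.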

Going from “HMDPTIAAIRKKLKNWTIVEVHMTREELEQAVIDGKVDVFLSSAGFYRRLVRFGARDLATAMSPAYPD” to “HMNKTVKIPNVSNLSREDAESVLKENGISVNSEVKQIESDTIEKGKVVKTDPSIGTSVKKGRSITIYVSSG”, the “soluble fraction (log2)” value rises from -0.542 to 0.0637.

Compared with “HMGKASNEVYEVISSKIRTGEWAPGYKLPSEPTLAEEFGVSRATVREALQELISRGRIKREQGRGTYVLH”, “HMSSIRDVVPEGLLSDREKLVLVLAFDRDLDGPDMARTLGISANTVRVLKARALKKLRQAGIQP” is lower in “soluble fraction (log2)” value: 0.161 for the first, -0.957 for the second.

First: HMKRVTRQRTEILRVIDESERPLGPQEILQAGREAIPSLSIATIYRTLRDLLAEELIKTVALPGDSPRYES
Second: HMGDPYAILGLLPGASMEDVRHAWRRQAAENHPDRMLQRGAPPEFVEIAREKTAAINAAYARIREELSI
The “soluble fraction (log2)” value of the first is lower: -1.31 for the first, -0.303 for the second.

Going from “HMKELAADFSRRIINARTSKGWSQADLGQRMAETINVIKSAESGKPPTDAVVKKFETVLGVILM” to “HMQDNDLKNQIENVLRTYPDNVFTVEKIADVLRSHGSAAFKLIVQELASLERDKVAVVTEDGKFQLNPD”, the “soluble fraction (log2)” value rises from -0.641 to 0.125.

Compared with “HMKIRKAVIPAAGLGTRVLPASKSIPKEMLPIVDKPVIQYIVEEAVKAGITEILIITGRGKGAIEDHFDRS”, “HMSYPFSEDALKEKIREYLKHNRSINRKVLEAEFHIRKQTALNWLKKLEKSGFLIKEGSRNAPVYFLAE” is lower in “soluble fraction (log2)” value: -0.122 for the first, -0.832 for the second.

Going from “HMVNTVEVQGNTIYSAEEIRSASGIQKGDNLFTLNKEAAAGSIKASLPYVETVSIIRFLPDKIVIEVKE” to “HMQTTKTGTITASSLYVRSGASTSHKVLGTVSKGKTVQIKDTQDGWHKISYNGDHGWVSGKYVSTT”, the “soluble fraction (log2)” value rises from -0.473 to no less than 0.62.

“HMAATNVKVPDLKGWDYNNAVGKYGDKLSFVKKSIYSDSVSKGIIIYNARVGETVAQGTTIEVTVSLGPKG” and “HMRFDADELQKAYDLFDADENTPFKTIKQAYYALARRHHPDKNGDQEYFKVINNAFQLIQEHRRRRDN” are within 0.2 log units of each other in “soluble fraction (log2)” value: -0.205 for the first, -0.246 for the second.

First: HMDGIRLYPGLMIEHKNFGRGQVVSVNRERGTFTAFFGKNGTRTLTIQILKTDTVRPLASQKAGK
Second: HMLKEDSAYELGLRIFDQALNDYGTSFIDLKEDEYKKVLSIYGYSNPRQLIINIGLGNVIPHLLARDITE
The “soluble fraction (log2)” value of the first is higher: 0.212 for the first, -1.23 for the second.

“HMTVKEVGYDTFLTMLDKKEIKQVQVEDNQIIFSDNADPVNYYKTGVFNDPDLVNRLQDAGVEFG” and “HMETAVMPDVMKLDSTTAIQALKDKGFATIETYEVKSDRPAGVVVRQSETADSVVALSKEILLGVSNGADY” are within 0.2 log units of each other in “soluble fraction (log2)” value: 0.312 for the first, 0.304 for the second.

First: HMSDKPRYYINGNTLFISDKSVKKVLFSDLSGRSILHTTETAINIATFRGAHILTVIYTDGSTKSEVIF
Second: HMARTDVKLREVAQELLRMGLLEESLRPHLYRTALASMERLNATLEPLDLIARADEIRGLVFLAVRH
The “soluble fraction (log2)” value of the first is higher: -1.29 for the first, -2.44 for the second.

Compared with “HMPMTRILFLPDDRTILQFDSAEPAEDLVSAVNAGRWLPPEPYRSGFGLGLPENRLRASRQGALVVVMLS”, “HMLTGADAEKATAAAQAEFPGGTVLRVETDADGTYEAHVRKADGTEVEVKMDKDFKVTSVEE” is higher in “soluble fraction (log2)” value: -0.967 for the first, 0.0905 for the second.

Going from “HMRIFDDNMIFPTEAEISAALKRLVMDLPKVGFLQGHGERAVDNVGERAYSMFTHANNFRYALINQGFVT” to “HMEAVLTISPGMYSESVSAELVRLGIITNQKEFNSYLVNNGYAERIQTGDFKIKADMSYDEIARIITK”, the “soluble fraction (log2)” value rises from -0.176 to 0.231.

Going from “HMAKNDSGLNNHTFNTIRDALQKALTDGPQEAKKLTENLPFPADKIITVIRYLADHDEHFSLEDGIISLT” to “HMAKITERVMGSAALRDYDPNYLPDEVLKALDGYPPFDGYVYKDGILYARVKIGDTFFIIPPI”, the “soluble fraction (log2)” value falls from 0.24 to -2.27.

“HMTSAHEKAFDLFDGGKLSEKALLIAVGAERSGFELAGDLRLRTLTAFEDGRLSEDAMIKLL” and “HMKEIKRLVELSPGRYFIEGATNIRVFGINGSLLLDTKGETVDLSDLAKGVYLLKTDGVTYKVL” are within 0.2 log units of each other in “soluble fraction (log2)” value: -0.385 for the first, -0.543 for the second.

Compared with “HMFTEEEMTKLRHELILAGIRLSRELGLQRMSVEKITSAVGIAKGSFYIFFDSKEDFILEIADHANRE”, “HMGVITVRPPIVVRDFAIALNLKPFQVIGNLMELNKVVSVSSVIEEADARKVAERHGYTLEIRH” is higher in “soluble fraction (log2)” value: -1.06 for the first, -0.516 for the second.

Compared with “HMDSLIEYENERSLRRLINENLSDYERTVWWLYYAGADAAHIAEQTGRSKRSAENAITRVRRKLRALITQS”, “HMDKSLDFASIKSVEIATGRKFGWHALKKWSKSNSSEIKTIPDPNFGEVKTYHKDAWLAVYNINLSPILD” is higher in “soluble fraction (log2)” value: -1.08 for the first, -0.404 for the second.

Compared with “HMRSAKEYKAIREEIYRFIGAYITKHVYAPSNKEIAEAVGISGTTVHRHLIDMIDEGILETD”, “HMAKQQTTTTAHVVTTGETLYSIAQKNGISVEELKKSNNITSDKLRPGQTLHITKVSKTSSTAK” is higher in “soluble fraction (log2)” value: -2.56 for the first, 0.365 for the second.

Going from “HMDITGIGIKKRIKAIIDSEDKKNPLSDTQIVEILKNEGLEISRRTVAKYRSDLQIPSSSKRKK” to “HMDAPLIIAETRVDVPDATVSDAVMMLDLRNTNALLFKNSGSGVLNMVYRRGDGTIGWGEPQ”, the “soluble fraction (log2)” value falls from 0.403 to -0.0172.

Going from “HMFEYDEIMEQSVPKIAWGSLLTIMKKASSHKEMLWYINETYKNGWSRSMVLNQIAMASYERSLIE” to “HMSALAEELIKKNQAMILTIKPRDTIWGIANRFQSPPSEKFINQIIELNQVDPYRLRIGQDLLIPLN”, the “soluble fraction (log2)” value rises from -0.851 to -0.584.

First: HMFEERKKDWNLTGLLDDVIRRYIHQLTNDELNEINLEKSSGMPDEEIKNGIKLPLAVMQQRRETWGS
Second: HMAIELTPRQLDIIELVRKHAPITGEQIAELLGVTRPSIRSDLGLLVMLGYIDAKPKVGYFAGPRM
The “soluble fraction (log2)” value of the first is higher: -0.16 for the first, -0.597 for the second.

First: HMSTEAFLGTEGEVVLPLLPDGLGKIRLHVADQDVELPARTGGEPIQIRERVVVVRFRDGIAEVEPAP
Second: HMAVSGRGSIIGGVATVLDDFADSGKVWLEGEAWQARSSVPLKQDQEVVVRAMDGLVLVVEPVA
The “soluble fraction (log2)” value of the first is higher: 0.191 for the first, -0.198 for the second.

Compared with “HMGGAYATVKLSSSSSQLNVRASASTASRVVARLSHGFRVEVLGVSGDWVKIRALGVEGYVARAYLALEGE”, “HMNPHGVAIIDVRKGKASTLRSLATSVRSLGEWDQLKIPIFNLESLTSLVLWHGLDAIVKEPESLQSNLIL” is lower in “soluble fraction (log2)” value: -0.374 for the first, -0.62 for the second.

First: HMDWPDDETIARIYALIKSDISSQARKVMELRFSEGMPFARIAAAMGISETAVYRHLSHALTVIRQKLN
Second: HMLTRQRKQLLEYLSKHTDEQMTARQIADALTAESISISAVYRNLSALEEEGILKRSIRENTREVYYQYIA
The “soluble fraction (log2)” value of the first is lower: -2.06 for the first, -0.973 for the second.

Going from “HMLSLSDIINDVMERLTREKNLTFDELLGEKRERRRIVYTFLALLELIRLKMIKAYQTAAFGVIRIFPR” to “HMTQRRLQSELDSIPGVGAGTRTKLLRTLGSVDAVLRASEAELLAAGANRRQVASIQAHAAAVER”, the “soluble fraction (log2)” value rises from -0.898 to -0.0642.

Going from “HMILNPQELGERIRKLRLKRNKTQSYFADMLYISSSYLALIESGKRVPNLDLLIHIAKFTDVTLDYLVFG” to “HMLIPADETEAKVLSVLSREPLHVDEIRNQAGLPIEKISATLALMELKGMVRQVGGMNYVSV”, the “soluble fraction (log2)” value rises from -1.22 to 0.122.

Going from “HMATVIDVATTLGRPITDPDEQRQVLNWIGKTERIISARLGDLAALDRQILADVISEVVARRARN” to “HMGKSETALELIKRGHRLIADDAVEITRIGSTLSGTAPELIRNYLEVRGVGVIDVEKLFGVGAVQDSTQI”, the “soluble fraction (log2)” value rises from -0.4 to 0.0401.

Going from “HMEQVLNVAVRRGELIMSSAAEQTVRIYSSAGSMVWQGKVSASDVTVELPSGVYVVNGKKVV” to “HMLKFGLSQRELQILALLPTDEPLSILAKSLFISESTLKTHLTHIYRKLGVKNRLQAINVARKAGLLK”, the “soluble fraction (log2)” value rises from -1.19 to -0.283.

Compared with “HMETTVPNVLNHNISTGEILLKENNLNFRIQYIPSNKDEAVGTIINSVPTSGEKVKFGTVVDLKVL”, “HMDFTHFTLKQDGKFAGSSNLLHQAVIAAARLAAETGKPVTVMAHVRGGGTRKAVFNPDGTNDKIWN” is lower in “soluble fraction (log2)” value: 0.0465 for the first, -0.61 for the second.

Compared with “HMKPSNLTSDERTQLLAQLKTAMGSDQYNQLRRQVGEEKLLEYVLDNVPGIQEEILGNRAVQENIDLH”, “HMLPLLEYLDPFTGKKTYTYLNPDTQHPIFTYYSYQDDKTGRTAYSYIDPLTGKAVNSDEPPMDILYD” is lower in “soluble fraction (log2)” value: 0.23 for the first, -0.441 for the second.

“HMTMQQGTISRLNHSRGFGFLTTPDGEDLFFHRTNVHETPFARLQVGDRVTYDVQVTPRGTRADKVQLNM” and “HMARRSRADAVRNREALIDAAKAAFTEAGPDVSLEEIARRAGVGIGTLYRHFPTRDAVIEAVYR” are within 0.2 log units of each other in “soluble fraction (log2)” value: -0.0328 for the first, 0.0559 for the second.

First: HMVAPKDIVMPSFVGKKYTDVVNTPNSSYTFEFKKDEKNSSDYAVGFIMDQKPKAGETVKSNATVTLIVSK
Second: HMFVNADEIAKGLSPFNPSSVAIEAGRLMLKRIGELLSAGVSFSVETTLSTRSYINLIQQAQNQGYSVSL
The “soluble fraction (log2)” value of the first is lower: -0.0152 for the first, no less than 0.62 for the second.

Going from “HMGKKGPELNDNEKIIFNIISKENSMNLDDLKNRTELSNKQWDKAIKGLRSHELVNIEKIDDQLLIHL” to “HMRRISLEDWQLIESLIRRDWSPEQISLWLKKYKKIRVSHEWIYQYILKDKSKAGDLHTHLRSR”, the “soluble fraction (log2)” value falls from 0.196 to -0.174.

Compared with “HMDTVIAEVTASILNLRRSAGTSSDIIGKLNKGEKVSIIGGSGNWKNVRTSGGITGWVYHEYLSTY”, “HMPKRSKDEAELEFLEMLRDNQVDSTWSFGKIISQLGSTDPRYWMVDDDPLWKRQIFEKYLSNR” is higher in “soluble fraction (log2)” value: -0.623 for the first, -0.292 for the second.

“HMSKKLLVLQTSDDAKAKDVLSQNGYQLDDGDKLSIIETEQTKMADVIKLLSDNAIDIEDVQHVH” and “HMFKEVPVPDVKGMTLEEAKLALEKEGFILGKTEEAESTEVAAGKIISQNLEAGKIAKQGTSVNLVVSKGK” are within 0.2 log units of each other in “soluble fraction (log2)” value: 0.217 for the first, 0.24 for the second.

Going from “HMQISGIHLYERRITKDDEWAERKLSEISLAGSLVILILRNEHVVIPNGETVLKENDLLYISD” to “HMDVNMLVTGMLHKGEKSFVRVSFLRGKDWAEGIVPDAKIEKSQGFMEEEVARLEAYLLEQKSMIMEQA”, the “soluble fraction (log2)” value rises from -2.93 to -1.32.

“HMEMNPLDIQNKAAELAQQWLQLPVGERQKQMAAVRTSNPNLHAMAKQKMEEMRSQAESQGRQSLSQP” and “HMEETGFYIKLQDQEVVIFHNDQVTPYEYTGIREEVLPESELEKLREGFFVEDEKELYSVLENLS” are within 0.2 log units of each other in “soluble fraction (log2)” value: 0.0359 for the first, -0.142 for the second.

“HMDLDIQNYNLDEILELFKVSYDFDETELKKAHKMYLMTHPDKSNLNPNIFLFFVQAYDILRKLYEFR” and “HMGLTLREKMGHVLEMLKGREFLPFVSLFTVEEGRIGVVVTFMSILELVKEGILDLVQTESFGPIHVKAR” are within 0.2 log units of each other in “soluble fraction (log2)” value: -0.468 for the first, -0.326 for the second.

In the case of “HMPELPEVETSRRGIEPHLVGATILHAVVRNGRLRWPVSEEIYRLSDQPVLSVQRRAKYLLLELQA”, the “soluble fraction (log2)” value is reported as 0.0555.
